The text below walks through data of the supplement of paper PMC9170038.

The subject of this data set is MS2 coat protein. The data set is described as follows: apparent KD of MS2 coat protein; designed switch direction (-1 OFF switch, 1 ON switch): -1; higher = weaker reporter binding. In a few lines: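 SNAP-549-labelled MS2 coat protein was titrated, doubling from 0.7 or 1.5 nM to 3 µM, over designed RNA switches transcribed on Illumina chips by stalled E. coli RNA polymerase. Runs were done without input, with 200 uM small-molecule ligand, or with an oligonucleotide input. Apparent KD is the per-design median over clusters of curve-fitted normalised fluorescence.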

Setting [1] is: Eterna round: R95, input ligand: FMN 200 uM.
Where [2] appears, read: Eterna round: R95, input ligand: microRNA oligo, concentration not stated.
The mark [3] stands for this setting: Eterna round: R95, input ligand: none.
Where [4] appears, read: input ligand: microRNA oligo, concentration not stated.

Turning to “CAGUACUGAGGAUAUACAUGAGGAUCACCCAUGUGUUCCAGCUAGGAAACUAGCAAAUGUAGAAGGCAGUACUG [salish99_ex3_r3_089 (STABLE!)] (puzzle: Exclusion 3)”, the “apparent KD of MS2 coat protein” value is, setting by setting: under setting [1], 94.1 nM; under setting [2], 217 nM; under setting [3], 234 nM.

As to “CAGUACUGAGGAUAUACAUGAGGAUCACCCAUGUGUUCCAGCUAGGAAACUAGCAAUGGAAGAAGGCAGUACUG [Salish 065 m1] (Eterna round: R97, puzzle: Exclusion 3)”, the “apparent KD of MS2 coat protein” value was determined as 18.8 nM (input ligand: FMN 200 uM) and 21.6 nM (input ligand: none).

“CAGUACUGAGGAUAUACAUGAGGAUCACCCAUGUGUUCCAGCUAGGAAACUAGCGAAUGUAGAAGGCAGUACUG [jl-ex3-4.22 salish99 mod] (Eterna round: R97, puzzle: Exclusion 3)”: the “apparent KD of MS2 coat protein” value is, setting by setting: (input ligand: FMN 200 uM) 451 nM; (input ligand: none) 355 nM.

For “CAGUACUGAGGAUAUACAUGAGGAUCACCCAUGUGUUCCAGCUAGGAAAGUAGCAAAAGUAGAAGGCAGUACUG [salish99_ex3_r3_072] (puzzle: Exclusion 3)”, the “apparent KD of MS2 coat protein” value runs as follows: under setting [1], 291 nM; under setting [2], 26.7 nM; under setting [3], 21.6 nM.

On to “CAGUACUGAGGAUAUACAUGAGGAUCACCCAUGUGUUCCAGCUAGGAUACUAGCAAUGGAAGAAGGCAGUACUG [Mat - Exclusion 3 - Eli Mod - D1] (Eterna round: R97, puzzle: Exclusion 3)”, for which the “apparent KD of MS2 coat protein” value worked out at 17.2 nM (input ligand: FMN 200 uM) and 16.8 nM (input ligand: none).

On to “CAGUACUGAGGAUAUACAUGAGGAUCACCCAUGUGUUCCUGCUAGGAUACUAGCAAGGGUAGAAGGCAGUACUG [Mat - Exclusion 3 - Eli Mod - D4] (Eterna round: R97, puzzle: Exclusion 3)”, for which the “apparent KD of MS2 coat protein” value was 59.4 nM (input ligand: FMN 200 uM) and 19.7 nM (input ligand: none).

Turning to “CAGUACUGAGGAUAUACAUGAGGAUCACCCAUGUGUUGCAGCUAGGAAACUAGCAAAAGUAGAAGGCAGUACUG [salish99_ex3_r3_081] (puzzle: Exclusion 3)”, the “apparent KD of MS2 coat protein” value under setting [2] was found to be 12 nM.

Take “CAGUACUGAGGAUAUACAUGAGGAUCACCCAUGUUAGAGAUACUAGUGAGGUCGAUUAGUAGAAGGCAGUACUG [Mat X3R4 m24] (Eterna round: R97, puzzle: Exclusion 3)”: the “apparent KD of MS2 coat protein” value by setting is: (input ligand: FMN 200 uM) 557 nM; (input ligand: none) 44.9 nM.

Turning to “CAGUACUGAGGAUAUACAUGAGGAUCACCCAUGUUCUUCAGCUAGGAUACUAGCAAAGGUAGAAGGCAGUACUG [Mat - Exclusion 3 - Eli Mod - D28] (Eterna round: R97, puzzle: Exclusion 3)”, the “apparent KD of MS2 coat protein” value stood at 611 nM (input ligand: FMN 200 uM) and 30.1 nM (input ligand: none).

In the case of “CAGUACUGAGGAUAUACAUGAGGAUCACCCAUGUUCUUCGGCUAGGAUACUAGCAAAGGUAGAAGGCAGUACUG [Mat - Exclusion 3 - Eli Mod - D27] (Eterna round: R97, puzzle: Exclusion 3)”, the “apparent KD of MS2 coat protein” value reads like this: (input ligand: FMN 200 uM) 144 nM; (input ligand: none) 18.7 nM.

In the case of “CAGUAUUGAGGAUAUACAUGAGGAUCACCCAUGUGUUCCAGCUAGGAAACUAGCAAAAGUAGAAGGCAGUACUG [salish99_ex3_r3_085] (puzzle: Exclusion 3)”, the “apparent KD of MS2 coat protein” value under setting [2] was determined as 21 nM.

Consider “CAGUGACAUGAGGAUCACCCAUGUCAGGAUAUCUGUACCAUCCGACGGAGGUCCAGACAGAGAAGGGACUUGGG [Eternabot (L1) Solution 31] (Eterna round: R97, puzzle: Exclusion 1)”, for which the “apparent KD of MS2 coat protein” value reads like this: (input ligand: FMN 200 uM) 76.9 nM; (input ligand: none) 49.9 nM.

Take “CAUACAGUAGUUAGGAUAUUGCAACACACACGGAACGAGAAGGGACAUGAGGAUCACCCAUGUAGACUGUAAAG [EX-4 Malc #6] (puzzle: Brourd's mod of Exclusion 4)”: the “apparent KD of MS2 coat protein” value turned out to be 20.7 nM under setting [1], 27.2 nM under setting [2] and 24.5 nM under setting [3].

Take “CAUACAGUAGUUAGGAUAUUGCAACGCACACGGAACGAGAAGGGACAUGAGGAUCACCCAUGUAGACUGUAAAG [EX-4 Malc #7] (puzzle: Brourd's mod of Exclusion 4)”: the “apparent KD of MS2 coat protein” value is, setting by setting: under setting [1], 20.1 nM; under setting [2], 18.5 nM; under setting [3], 24.7 nM.

With “CAUACUAAAGUCAGGAUAUGCGGCCGAAUACGGGUGUAGAAGGGACAUGAGGAUCACCCAUGUAGAUAGUAAAG [EX-4 Malc #17] (puzzle: Brourd's mod of Exclusion 4)”, the “apparent KD of MS2 coat protein” value under setting [1] was 29.1 nM, the “apparent KD of MS2 coat protein” value under setting [2] turned out to be 23.1 nM and the “apparent KD of MS2 coat protein” value under setting [3] stood at 22.2 nM.

As for “CAUACUCAAGUCAGGAUAUAGAGUCGGAUACGGGUCUAGAAGGGACAUGAGGAUCACCCAUGUAGAGAGUAAAG [EX-4 Malc #24] (puzzle: Brourd's mod of Exclusion 4)”, the “apparent KD of MS2 coat protein” value reads like this: under setting [1], 62.7 nM; under setting [2], 30.9 nM; under setting [3], 30.8 nM.

“CAUACUCAAGUCAGGAUAUAGUCUCGGAUACGGAACUAGAAGGGACAUGAGGAUCACCCAUGUAGAGAGUAAAG [EX-4 Malc #27] (puzzle: Brourd's mod of Exclusion 4)”: the “apparent KD of MS2 coat protein” value runs as follows: under setting [1], 63.2 nM; under setting [2], 37.8 nM; under setting [3], 52.2 nM.

For the sequence “CAUACUGAAGUUAGGAUAUUCGGCCGAAUACGGAUGGAGAAGGGACAUGAGGAUCACCCAUGUAGAUAGUAAAG [EX-4 Malc #14] (puzzle: Brourd's mod of Exclusion 4)”, the “apparent KD of MS2 coat protein” value reads like this: under setting [1], 26.1 nM; under setting [2], 21.7 nM; under setting [3], 27.6 nM.

For the sequence “CAUAGUUACUCAGGAUAUCUUACAUGAGGAUCACCCAUGUAAUAAAUGAGAAUUUCGAAUGUAUAAGAGAAGGGAGAAAUCUAC [Ostracism 58 - Jieux - Exclusion NG 2] (Eterna round: R96, puzzle: Exclusion NG 2)”, the “apparent KD of MS2 coat protein” value (input ligand: FMN 200 uM) turned out to be 15.9 nM, the “apparent KD of MS2 coat protein” value under setting [4] amounted to 14 nM and the “apparent KD of MS2 coat protein” value (input ligand: none) was 17.6 nM.

In the case of “CAUGAUCUUCGGAUCAUGUACAUGAGGAUCACCCAUGUGACGAGUUGAUCCUCAAACAAGCUUUUUGCUCGUCUUAU [Sensor v3 - Turn-off variant 1 - 18] (puzzle: Sensor v3, turn-off variant 1)”, the “apparent KD of MS2 coat protein” value runs as follows: under setting [1], 17 nM; under setting [2], 10.6 nM; under setting [3], 17.5 nM.

As for “CAUGAUUGGCGAGGAUAUUGACCUAGUUGGCGACGAGAAGGCGCCUGUCACAUGAGGAUCACCCAUGUGAAUCUGGUGAAAGAG [Ex NG1 #90] (Eterna round: R96, puzzle: Exclusion NG 1)”, the “apparent KD of MS2 coat protein” value was determined as 23.9 nM (input ligand: FMN 200 uM), 16.1 nM under setting [4] and 22.8 nM (input ligand: none).

On to “CAUGAUUGGGAAGGAUAUUGACCUAGUUAGUGCCGAGAAGGUCCCUUUCACAUGAGGAUCACCCAUGUGAGACUGGUGUUCGAG [Ex NG1 #98] (Eterna round: R96, puzzle: Exclusion NG 1)”, for which, under setting [4], the “apparent KD of MS2 coat protein” value turned out to be 19.6 nM.

On to “CAUGGAACGUAGGAUAUCUCGCAGCCCGGCCGCAGAGAAGGACGUACAUGAGGAUCACCCAUGUAUGAUCCAAA [Zareinon] (puzzle: Exclusion 6)”, for which the “apparent KD of MS2 coat protein” value runs as follows: under setting [1], 32.2 nM; under setting [2], 19.8 nM; under setting [3], 26.2 nM.

Regarding “CAUGUGUAAGGAUAUGACAAUGGUAUCUUCGGAUACCAUUGUCAGAAGGUACAUGAGGAUCACCCAUGUAGAUC [Ex4-3: 16] (puzzle: Exclusion 4)”, under setting [2], the “apparent KD of MS2 coat protein” value is 48.6 nM.

For “CAUUACUACAAGCUAAGGGACAUGAGGAUCACCCAUGUUCGUCUUAUUGAUCUAGGUACGCUGACGUACCUAGAUCU [JL-sv1-2.23 Brourd mod] (puzzle: Sensor v3, turn-off variant 1)”, the “apparent KD of MS2 coat protein” value amounted to 15.8 nM under setting [1], 20.1 nM under setting [2] and 14.6 nM under setting [3].

Regarding “CAUUACUACAAGCUAUGGGACAUGAGGAUCACCCAUGUUCGUCUUAUUGAUCUAGGUACGCUGACGUACCUAGAUCU [JL-sv1-2.22 Brourd mod] (puzzle: Sensor v3, turn-off variant 1)”, the “apparent KD of MS2 coat protein” value runs as follows: under setting [1], 16.6 nM; under setting [2], 21.6 nM; under setting [3], 15.7 nM.

“CAUUAGCGGGCAGGAUAUCCUAAUAAGCAGAAUGGAGAAGGGCCAAGGUCAACUUGAGGAUCACCCAAGUCAUAAAGUUGGCCC [Mutated MS2 EX1.29] (Eterna round: R96, puzzle: Exclusion NG 1)”: the “apparent KD of MS2 coat protein” value turned out to be 10.9 nM (input ligand: FMN 200 uM), 11.6 nM under setting [4] and 13.9 nM (input ligand: none).

On to “CAUUAUGUUGAGGAUAUGCACCAGCUCACUGACGCAGAAGGCGACACAUGAGGAUCACCCAUGUCAGUUCGCGA [salish99_ex6_r004_428] (Eterna round: R97, puzzle: Exclusion 6)”, for which the “apparent KD of MS2 coat protein” value reads like this: (input ligand: FMN 200 uM) 16.1 nM; (input ligand: none) 14.6 nM.

Regarding “CAUUAUGUUGAGGAUAUGCGCCGGAAAACUGACGCAGAAGGCGACACAUGAGGAUCACCCAUGUCAGUUUGCGA [salish99_ex6_r004_425] (Eterna round: R97, puzzle: Exclusion 6)”, the “apparent KD of MS2 coat protein” value amounted to 70.1 nM (input ligand: FMN 200 uM) and 28.3 nM (input ligand: none).

Consider “CAUUAUGUUGAGGAUAUGCGCCGGCAAACUGACGCAGAAGGCGACACAUGAGGAUCACCCAUGUCAGUUCGCGA [salish99_ex6_r004_423] (Eterna round: R97, puzzle: Exclusion 6)”, for which the “apparent KD of MS2 coat protein” value worked out at 13.3 nM (input ligand: FMN 200 uM) and 14.9 nM (input ligand: none).

Consider “CAUUAUUAUCGAGGAUAUCCUAUUGAAAUUCUGGGAGAAGGCGGACUCAACAUGAGGAUCACCCAUGUGGGACGGAUGCUAGGG [Ex NG1 #28] (Eterna round: R96, puzzle: Exclusion NG 1)”, for which the “apparent KD of MS2 coat protein” value under setting [4] was 17.5 nM.
